Values of other authors as cited in patent US8013186B2, “Haloalkyl containing compounds as cysteine protease inhibitors” (Virobay, Inc., priority 2004, dated 2011).

Conditions: in clinical trials

Substance: OKT3: murine monoclonal antibody directed towards CD-3 domain of activated T-cells
- patients administered OKT3 who produce antibodies versus the therapy: 20-40%
